Data published in patent publication US20060257938A1, “Method of screening for drugs that block ligand binding to a lipid binding protein” (priority 2005, published 2006).
Where a chain is given by its changes, count along the chain named. Where “and” joins values, the source holds several entries; their conditions need not be identical. Equal entries are not always repeated.

B1: 14G, 72A (protein, listed as Rattus norvegicus)
chain: AFDGTWKVDRNENGEKFMEKMGINVVKRKLGAHDNLKLTITQEGNKFTVKESSNFRNIDVVFELGVDFAYSAADGTELTGTWTMEGNKLVGKFKRVDNGKELIAVREISGNELIQTYTYEGVEAKRIFKKE
modifications: PEPTIDE (1)...(131) wild-type rat intestinal fatty acid binding protein
B2: 14L, 72A (protein, listed as Rattus norvegicus)
chain: B1 chain with G14L
modifications: PEPTIDE (1)...(131) wild-type rat intestinal fatty acid binding protein
B3: 14H, 72A (protein, listed as Rattus norvegicus)
chain: B1 chain with G14H
modifications: PEPTIDE (1)...(131) wild-type rat intestinal fatty acid binding protein
B4: 14P, 72A (protein, listed as Rattus norvegicus)
chain: B1 chain with G14P
modifications: PEPTIDE (1)...(131) wild-type rat intestinal fatty acid binding protein
B5: 14K, 72A (protein, listed as Rattus norvegicus)
chain: B1 chain with G14K
modifications: PEPTIDE (1)...(131) wild-type rat intestinal fatty acid binding protein
B6: 17A, 72A (protein, listed as Rattus norvegicus)
chain: B1 chain with G14Y, F17A
modifications: PEPTIDE (1)...(131) wild-type rat intestinal fatty acid binding protein
B7: 14S, 72A (protein, listed as Rattus norvegicus)
chain: B1 chain with G14S
modifications: PEPTIDE (1)...(131) wild-type rat intestinal fatty acid binding protein
B8: 14T, 72A (protein, listed as Rattus norvegicus)
chain: B1 chain with G14T
modifications: PEPTIDE (1)...(131) wild-type rat intestinal fatty acid binding protein
B9: 14R, 72A (protein, listed as Rattus norvegicus)
chain: B1 chain with G14R
modifications: PEPTIDE (1)...(131) wild-type rat intestinal fatty acid binding protein
B10: 14I, 72A (protein, listed as Rattus norvegicus)
chain: B1 chain with G14I
modifications: PEPTIDE (1)...(131) wild-type rat intestinal fatty acid binding protein
B11: 14Q, 72A (protein, listed as Rattus norvegicus)
chain: B1 chain with G14Q
modifications: PEPTIDE (1)...(131) wild-type rat intestinal fatty acid binding protein
B12: 14M, 72A (protein, listed as Rattus norvegicus)
chain: B1 chain with G14M
modifications: PEPTIDE (1)...(131) wild-type rat intestinal fatty acid binding protein
B13: 14V, 72A (protein, listed as Rattus norvegicus)
chain: B1 chain with G14V
modifications: PEPTIDE (1)...(131) wild-type rat intestinal fatty acid binding protein
B14: 14N, 72A (protein, listed as Rattus norvegicus)
chain: B1 chain with G14N
modifications: PEPTIDE (1)...(131) wild-type rat intestinal fatty acid binding protein
B15: 14W, 72A (protein, listed as Rattus norvegicus)
chain: B1 chain with G14W
modifications: PEPTIDE (1)...(131) wild-type rat intestinal fatty acid binding protein
B16: 102K, 72A (protein, listed as Rattus norvegicus)
chain: B1 chain with G14Y, L102K
modifications: PEPTIDE (1)...(131) wild-type rat intestinal fatty acid binding protein
B17: 17C, 72A (protein, listed as Rattus norvegicus)
chain: B1 chain with G14Y, F17C
modifications: PEPTIDE (1)...(131) wild-type rat intestinal fatty acid binding protein

Test: Probe fluorescence ratio response to arachidonic acid relative to ADIFAB2
Format: binding
Conditions: arachidonic acid; response relative to ADIFAB2
How it was run: (§1)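 Fluorescently labeled rat intestinal FABP variants were read at two emission wavelengths, near the unbound maximum (about 420 to 480 nm) and the FFA-bound maximum (about 495 to 580 nm). R = Fλ1/Fλ2 after subtracting probe-free intensity; ΔR = R+agent − R0, normalized to ADIFAB2 (rI-FABP-L72A).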
For B1, the “DR/DR AA” value was 0.43.
For B2, the “DR/DR AA” value was 0.89.
With B3 the “DR/DR AA” value was 0.37.
In the case of B4, the “DR/DR AA” value is reported as 0.55.
For B5, the “DR/DR AA” value was 1.08.
With B6 the “DR/DR AA” value was 0.53.
In the case of B7, the “DR/DR AA” value is reported as 0.46.
For B8, the “DR/DR AA” value was 0.64.
For B9, the “DR/DR AA” value was 0.49.
For B10, the “DR/DR AA” value was 0.57 and 0.572.
With B11 the “DR/DR AA” value was 0.50.
For B12, the “DR/DR AA” value was 0.62 and 0.619.
In the case of B13, the “DR/DR AA” value is reported as 0.76 and 0.756.
In the case of B14, the “DR/DR AA” value is reported as 0.42.
With B15 the “DR/DR AA” value was 0.30.
In the case of B16, the “DR/DR AA” value is reported as 0.47.
In the case of B17, the “DR/DR AA” value is reported as 0.15.

Test: Probe fluorescence ratio response to linolenic acid relative to ADIFAB2
Format: binding
Conditions: response relative to ADIFAB2
How it was run: as §1
In the case of B1, the “DR/DR LNA” value is reported as 0.46.
In the case of B2, the “DR/DR LNA” value is reported as 0.93.
For B3, the “DR/DR LNA” value was 0.42.
In the case of B4, the “DR/DR LNA” value is reported as 0.64.
With B5 the “DR/DR LNA” value was 0.92.
With B6 the “DR/DR LNA” value was 0.97.
For B7, the “DR/DR LNA” value was 0.53.
In the case of B8, the “DR/DR LNA” value is reported as 1.15.
In the case of B9, the “DR/DR LNA” value is reported as 0.51.
In the case of B10, the “DR/DR LNA” value is reported as 0.90 and 0.899.
For B11, the “DR/DR LNA” value was 0.52.
With B12 the “DR/DR LNA” value was 0.68 and 0.684.
For B13, the “DR/DR LNA” value was 0.87 and 0.868.
With B14 the “DR/DR LNA” value was 0.53.
In the case of B15, the “DR/DR LNA” value is reported as 0.31.
In the case of B16, the “DR/DR LNA” value is reported as 0.51.
For B17, the “DR/DR LNA” value was 0.26.

Test: Probe fluorescence ratio response to linoleic acid relative to ADIFAB2
Format: binding
Conditions: response relative to ADIFAB2
How it was run: as §1
With B1 the “DR/DR LA” value was 0.42.
In the case of B2, the “DR/DR LA” value is reported as 0.87.
With B3 the “DR/DR LA” value was 0.45.
With B4 the “DR/DR LA” value was 0.64.
With B5 the “DR/DR LA” value was 1.06.
With B6 the “DR/DR LA” value was 0.56.
In the case of B7, the “DR/DR LA” value is reported as 0.53.
For B8, the “DR/DR LA” value was 0.76.
For B9, the “DR/DR LA” value was 0.56.
In the case of B10, the “DR/DR LA” value is reported as 0.79 and 0.792.
In the case of B11, the “DR/DR LA” value is reported as 0.48.
For B12, the “DR/DR LA” value was 0.68 and 0.685.
With B13 the “DR/DR LA” value was 0.84 and 0.836.
With B14 the “DR/DR LA” value was 0.49.
With B15 the “DR/DR LA” value was 0.33.
With B16 the “DR/DR LA” value was 0.55.
In the case of B17, the “DR/DR LA” value is reported as 0.25.

Test: Probe fluorescence ratio response to oleic acid relative to ADIFAB2
Format: binding
Conditions: response relative to ADIFAB2
How it was run: as §1
For B1, the “DR/DR OA” value was 0.24.
For B2, the “DR/DR OA” value was 0.44.
For B3, the “DR/DR OA” value was 0.25.
With B4 the “DR/DR OA” value was 0.58.
For B5, the “DR/DR OA” value was 0.84.
In the case of B6, the “DR/DR OA” value is reported as 0.38.
For B7, the “DR/DR OA” value was 0.33.
With B8 the “DR/DR OA” value was 0.56.
For B9, the “DR/DR OA” value was 0.26.
In the case of B10, the “DR/DR OA” value is reported as 0.57 and 0.572.
With B11 the “DR/DR OA” value was 0.29.
With B12 the “DR/DR OA” value was 0.41 and 0.412.
For B13, the “DR/DR OA” value was 0.51 and 0.513.
In the case of B14, the “DR/DR OA” value is reported as 0.35.
In the case of B15, the “DR/DR OA” value is reported as 0.26.
In the case of B16, the “DR/DR OA” value is reported as 0.48.
In the case of B17, the “DR/DR OA” value is reported as 0.31.

Test: Probe fluorescence ratio response to palmitic acid relative to ADIFAB2
Format: binding
Conditions: response relative to ADIFAB2
How it was run: as §1
In the case of B1, the “DR/DR PA” value is reported as 0.19.
In the case of B2, the “DR/DR PA” value is reported as 3.07.
With B3 the “DR/DR PA” value was 0.17.
With B4 the “DR/DR PA” value was 0.30.
With B5 the “DR/DR PA” value was 0.47.
With B6 the “DR/DR PA” value was 0.24.
With B7 the “DR/DR PA” value was 0.27.
For B8, the “DR/DR PA” value was 0.36.
With B9 the “DR/DR PA” value was 0.26.
With B10 the “DR/DR PA” value was 0.59 and 0.586.
In the case of B11, the “DR/DR PA” value is reported as 0.33.
With B12 the “DR/DR PA” value was 0.45 and 0.452.
In the case of B13, the “DR/DR PA” value is reported as 0.43.
For B14, the “DR/DR PA” value was 0.32.
In the case of B15, the “DR/DR PA” value is reported as 0.23.
In the case of B16, the “DR/DR PA” value is reported as 0.23.
In the case of B17, the “DR/DR PA” value is reported as 0.10.
